In this assay the target is T1, GST-SMAD4^R361H, Q13485.
T1 chain: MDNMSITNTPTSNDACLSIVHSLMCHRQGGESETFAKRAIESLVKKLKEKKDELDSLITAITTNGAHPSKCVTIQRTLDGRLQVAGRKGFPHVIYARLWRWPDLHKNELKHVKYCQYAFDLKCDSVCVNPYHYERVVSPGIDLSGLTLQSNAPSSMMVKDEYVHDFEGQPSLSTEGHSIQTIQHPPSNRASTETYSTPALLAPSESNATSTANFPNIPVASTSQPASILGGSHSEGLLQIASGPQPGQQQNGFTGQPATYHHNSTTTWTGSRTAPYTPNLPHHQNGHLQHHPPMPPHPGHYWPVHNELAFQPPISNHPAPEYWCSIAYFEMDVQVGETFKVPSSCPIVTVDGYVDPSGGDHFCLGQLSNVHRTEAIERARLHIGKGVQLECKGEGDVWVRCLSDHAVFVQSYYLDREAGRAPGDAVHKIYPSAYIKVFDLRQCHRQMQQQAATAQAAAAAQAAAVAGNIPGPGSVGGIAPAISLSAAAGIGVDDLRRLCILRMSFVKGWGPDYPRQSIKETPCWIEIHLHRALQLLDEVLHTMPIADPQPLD
Put plainly: pull-down. The settings on record: remark: other sources report otherwise.

B1: Venus-flag-SMAD3, P84022 1-425 (natural protein)
chain: MSSILPFTPPIVKRLLGWKKGEQNGQEEKWCEKAVKSLVKKLKKTGQLDELEKAITTQNVNTKCITIPRSLDGRLQVSHRKGLPHVIYCRLWRWPDLHSHHELRAMELCEFAFNMKKDEVCVNPYHYQRVETPVLPPVLVPRHTEIPAEFPPLDDYSHSIPENTNFPAGIEPQSNIPETPPPGYLSEDGETSDHQMNHSMDAGSPNLSPNPMSPAHNNLDLQPVTYCEPAFWCSISYYELNQRVGETFHASQPSMTVDGFTDPSNSERFCLGLLSNVNRNAAVELTRRHIGRGVRLYYIGGEVFAECLSDSAIFVQSPNCNQRYGWHPATVCKIPPGCNLKIFNNQEFAALLAQSVNQGFEAVYQLTRMCTIRMSFVKGWGAEYRRQTVTSTPCWIELHLNGPLQWLDKVLTQMGSPSIRCSSVS
Consider B1, for which the EC50 of Go-6983 in enhancing the complex was 8.9 µM and the EC50 of Ro-31-8220 in enhancing the complex was determined as 2.1 µM.

The record behind these values is publication PMC10053325.
